Measurements as given in PMC3876883.

Assays:
Test in all cases: single-particle photobleaching
[1] = biological target: K2P9–WT, tandem subunit of K2P9 and wild-type K2P1 (human) (UniProt Q9NPC2)
[2] = biological target: WT–K2P9, tandem subunit of wild-type K2P1 and K2P9 (human) (UniProt O00180)
[3] = biological target: K2P3–WT, tandem subunit of K2P3 and wild-type K2P1 (human) (UniProt O14649)
[4] = biological target: WT–K2P3, tandem subunit of wild-type K2P1 and K2P3 (human) (UniProt O00180)

Sequence of UniProt Q9NPC2 (Q9NPC2 whole entry, looked up, tested part not stated): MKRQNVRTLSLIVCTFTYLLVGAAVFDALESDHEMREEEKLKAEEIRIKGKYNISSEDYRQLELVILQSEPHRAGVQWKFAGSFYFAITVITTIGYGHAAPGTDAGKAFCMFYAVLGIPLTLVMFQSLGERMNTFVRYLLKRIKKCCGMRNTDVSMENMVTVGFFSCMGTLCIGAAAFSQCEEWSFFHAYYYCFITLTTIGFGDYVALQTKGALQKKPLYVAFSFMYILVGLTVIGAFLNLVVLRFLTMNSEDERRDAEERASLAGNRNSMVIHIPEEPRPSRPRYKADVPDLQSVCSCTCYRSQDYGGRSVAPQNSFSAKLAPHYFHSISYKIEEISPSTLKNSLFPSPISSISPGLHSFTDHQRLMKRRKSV
Sequence of UniProt O14649 (O14649 whole entry, looked up, tested part not stated): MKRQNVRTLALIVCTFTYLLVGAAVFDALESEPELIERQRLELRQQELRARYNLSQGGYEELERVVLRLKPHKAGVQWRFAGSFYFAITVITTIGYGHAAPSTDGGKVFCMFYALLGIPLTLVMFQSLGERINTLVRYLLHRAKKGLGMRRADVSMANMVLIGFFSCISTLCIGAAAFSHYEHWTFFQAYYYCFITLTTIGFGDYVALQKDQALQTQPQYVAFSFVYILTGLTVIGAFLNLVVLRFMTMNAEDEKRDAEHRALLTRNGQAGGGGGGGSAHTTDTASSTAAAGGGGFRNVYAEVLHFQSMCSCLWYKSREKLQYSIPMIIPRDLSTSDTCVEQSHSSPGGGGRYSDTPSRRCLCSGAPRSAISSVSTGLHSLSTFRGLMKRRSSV

stoichiometry N (SUMO1 per channel) [1]: 1
stoichiometry N (bleaching step per particle) [2]: 1
stoichiometry N (SUMO1 per channel) [3]: 1
stoichiometry N (bleaching step per particle) [4]: 1
Substance: GFP-SUMO1 (from UniProt P63165 1-97) (natural protein)
